Measurements: patent US20200045945A1
Where “and” joins values, the source holds several entries; their conditions need not be identical. Identical values can stand only once. Each block holds one substance with its values, some of them ahead of it.

What was measured:
[1] = biological target: CD163 on macrophages of all six pigs 628, 633, 627, 634, 629, 630 (wild type, heterozygous and ΔSRCR5); assay: flow cytometry on PMMs, isotype control staining of the six pigs
[2] = biological target: CD163 on macrophages of all six pigs 628, 633, 627, 634, 629, 630 (wild type, heterozygous and ΔSRCR5); assay: flow cytometry on PAMs, isotype control staining of the six pigs
[3] = biological target: ΔSRCR5 CD163 (porcine CD163 with the SRCR5 domain deleted) (pig) (UniProt Q2VL90); assay: cell-based or functional assay
[4] = biological target: wild type (full-length, unmodified) porcine CD163 (pig) (UniProt Q2VL90); assay: cell-based or functional assay
[5] = biological target: CD163 on macrophages of heterozygous pigs 627 and 634 (both the full-length and the ΔSRCR5 protein); assay: cell-based or functional assay
[6] = biological target: CD163 on macrophages of all six pigs 628, 633, 627, 634, 629, 630 (wild type, heterozygous and ΔSRCR5); assay: cell-based or functional assay
[7] = biological target: CD163 on macrophages of heterozygous pigs 627 and 634 (both the full-length and the ΔSRCR5 protein); assay: flow cytometry on PMMs of pig 634 (heterozygous)
[8] = biological target: ΔSRCR5 CD163 (porcine CD163 with the SRCR5 domain deleted) (pig) (UniProt Q2VL90); assay: flow cytometry on PAMs of pig 630 (ΔSRCR5)
[9] = biological target: wild type (full-length, unmodified) porcine CD163 (pig) (UniProt Q2VL90); assay: flow cytometry on PMMs of pig 633 (wild type)
[10] = biological target: ΔSRCR5 CD163 (porcine CD163 with the SRCR5 domain deleted) (pig) (UniProt Q2VL90); assay: flow cytometry on PMMs of pig 630 (ΔSRCR5)
[11] = biological target: CD163 on macrophages of heterozygous pigs 627 and 634 (both the full-length and the ΔSRCR5 protein); assay: flow cytometry on PAMs of pig 634 (heterozygous)
[12] = biological target: CD163 on macrophages of heterozygous pigs 627 and 634 (both the full-length and the ΔSRCR5 protein); assay: flow cytometry on PMMs of pig 627 (heterozygous)
[13] = biological target: CD163 on macrophages of heterozygous pigs 627 and 634 (both the full-length and the ΔSRCR5 protein); assay: flow cytometry on PAMs of pig 627 (heterozygous)
[14] = biological target: ΔSRCR5 CD163 (porcine CD163 with the SRCR5 domain deleted) (pig) (UniProt Q2VL90); assay: flow cytometry on PMMs of pig 629 (ΔSRCR5)
[15] = biological target: wild type (full-length, unmodified) porcine CD163 (pig) (UniProt Q2VL90); assay: flow cytometry on PAMs of pig 628 (wild type)
[16] = biological target: wild type (full-length, unmodified) porcine CD163 (pig) (UniProt Q2VL90); assay: flow cytometry on PAMs of pig 633 (wild type)
[17] = biological target: wild type (full-length, unmodified) porcine CD163 (pig) (UniProt Q2VL90); assay: flow cytometry on PMMs of pig 628 (wild type)
[18] = biological target: ΔSRCR5 CD163 (porcine CD163 with the SRCR5 domain deleted) (pig) (UniProt Q2VL90); assay: flow cytometry on PAMs of pig 629 (ΔSRCR5)

- median of fluorescence intensity [1]: 1.88 to 3.79
- median of fluorescence intensity [2]: 2.13 to 3.84
Substance: mouse IgG1 or IgG2b negative control (AbD Serotec, MCA928PE, MCA691F, or Sigma, F6397) (antibody)

- medians of green fluorescence, HbAF488-Hp uptake into PMMs by FACS, animal 629 (ΔSRCR5) [3]: 340
- medians of green fluorescence, HbAF488-Hp uptake into PMMs by FACS, animal 630 (ΔSRCR5) [3]: 405
- medians of green fluorescence, HbAF488-Hp uptake into PMMs by FACS, animal 628 (wild type) [4]: 329
- medians of green fluorescence, HbAF488-Hp uptake into PMMs by FACS, animal 633 (wild type) [4]: 305
- medians of green fluorescence, HbAF488-Hp uptake into PMMs by FACS, animal 627 (heterozygous) [5]: 329
- medians of green fluorescence, HbAF488-Hp uptake into PMMs by FACS, animal 634 (heterozygous) [5]: 366
Substance: Alexa Fluor 488-labelled hemoglobin-haptoglobin complex (HbAF488-Hp) (from UniProt P69905 2-142; P68871 2-147; P00738 19-406) (ligand)

- HO-1 mRNA upregulation in PMMs after 24 h with Hb-Hp, RT-qPCR [6]: 2 fold and 6 fold
Substance: hemoglobin-haptoglobin complex (Hb-Hp) (from UniProt P69905 2-142; P68871 2-147; P00738 19-406) (ligand)

- median of CD163 fluorescence intensity [7]: 16.5
- median of CD163 fluorescence intensity [8]: 26.7
- median of CD163 fluorescence intensity [9]: 16.7
- median of CD163 fluorescence intensity [10]: 17.2
- median of CD163 fluorescence intensity [11]: 24.4
- median of CD163 fluorescence intensity [12]: 18.3
- median of CD163 fluorescence intensity [13]: 26.4
- median of CD163 fluorescence intensity [14]: 18.8
- median of CD163 fluorescence intensity [15]: 35.9
- median of CD163 fluorescence intensity [16]: 22.7
- median of CD163 fluorescence intensity [17]: 23.3
- median of CD163 fluorescence intensity [18]: 17.9
Substance: mouse anti-pig CD163 antibody, clone 2A10/11 (AbD Serotec, MCA2311PE)
